Assay results from PMC9908889.

Key:
MORF WH2 (Homo sapiens) [1] = experiment: EMSA; settings: EMSA: 20-25 mM Tris-HCl pH 7.5, 20-150 mM NaCl, 0-0.2 mM EDTA, 0-5 mM DTT, 0-20% glycerol, 4 C, NCP197 EMSA: 10 mM Tris, 1 mM EDTA, 10 mM NaCl, 1 mM TCEP, FP: …
MORF WH1 (Homo sapiens) [2] = target: T1, MORF WH1 (Homo sapiens) (UniProt Q8WYB5); experiment: EMSA; settings: His-tagged; EMSA: 20-25 mM Tris-HCl pH 7.5, 20-150 mM NaCl, 0-0.2 mM EDTA, 0-5 mM DTT, 0-20% glycerol, 4 C; NCP197 EMSA: 10 mM Tris, 1 mM EDTA, 10 mM NaCl, 1 mM TCEP; FP: …
T1 sequence: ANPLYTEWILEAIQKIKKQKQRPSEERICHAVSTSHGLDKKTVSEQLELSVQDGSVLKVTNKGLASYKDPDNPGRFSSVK

MORF WH1 (Homo sapiens) [3] = target: T1, MORF WH1 (Homo sapiens); experiment: fluorescence polarization; settings: EMSA: 20-25 mM Tris-HCl pH 7.5, 20-150 mM NaCl, 0-0.2 mM EDTA, 0-5 mM DTT, 0-20% glycerol, 4 C; NCP197 EMSA: 10 mM Tris, 1 mM EDTA, 10 mM NaCl, 1 mM TCEP; FP: …
[4] = target: T2, MORF WH1-WH2 (Homo sapiens) (UniProt Q8WYB5); experiment: fluorescence polarization; settings: EMSA: 20-25 mM Tris-HCl pH 7.5, 20-150 mM NaCl, 0-0.2 mM EDTA, 0-5 mM DTT, 0-20% glycerol, 4 C; NCP197 EMSA: 10 mM Tris, 1 mM EDTA, 10 mM NaCl, 1 mM TCEP; FP: …
T2 sequence: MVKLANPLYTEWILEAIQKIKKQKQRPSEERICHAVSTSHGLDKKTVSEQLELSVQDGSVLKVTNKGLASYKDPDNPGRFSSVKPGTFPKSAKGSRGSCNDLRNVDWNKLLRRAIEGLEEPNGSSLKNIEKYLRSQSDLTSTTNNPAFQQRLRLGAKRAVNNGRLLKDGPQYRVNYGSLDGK

MORF WH2 (Homo sapiens) [5] = experiment: fluorescence polarization; settings: EMSA: 20-25 mM Tris-HCl pH 7.5, 20-150 mM NaCl, 0-0.2 mM EDTA, 0-5 mM DTT, 0-20% glycerol, 4 C, NCP197 EMSA: 10 mM Tris, 1 mM EDTA, 10 mM NaCl, 1 mM TCEP, FP: …

Substance | K half (MORF WH1 (Homo sapiens) [3]) [µM] | K half [4] [nM] | further results
A-DNA15 (15 bp A-rich) |  |  | Kd (MORF WH2 (Homo sapiens) [1]; source data name GST-MORF WH2): 7.8 µM
C-DNA15 (15 bp C-rich) |  |  | Kd (MORF WH2 (Homo sapiens) [1]): 18 µM
CpG-DNA16 |  |  | Kd (MORF WH1 (Homo sapiens) [2]): 2 µM
DNA147 (601 Widom) | 15 | 62 | 
NCP147 | 9 | 12 | K half (MORF WH2 (Homo sapiens) [5]): 1000 nM
NCP207 | 0.3 | 7 | K half (MORF WH2 (Homo sapiens) [5]; text says NCP187, source data and Methods say NCP207): 1400 nM
